Experimental data taken from article PMC10397247.
Values belong to the binder of their own block, whether it stands above or below them.

Columns and labels:
[1] = biological target: T1, 4H1328-bA; experiment: two-hybrid library CCNG1;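 also: natural log of median RNA to DNA barcode read ratio; higher means stronger binding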
T1 chain: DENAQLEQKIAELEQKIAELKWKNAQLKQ

[2] = biological target: T2, 4H1369-bA; experiment: two-hybrid library CCNG1;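 also: natural log of median RNA to DNA barcode read ratio; higher means stronger binding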
T2 chain: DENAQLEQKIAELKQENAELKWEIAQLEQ

[3] = biological target: T3, 4H1446-bA; experiment: two-hybrid library CCNG1;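 also: natural log of median RNA to DNA barcode read ratio; higher means stronger binding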
T3 chain: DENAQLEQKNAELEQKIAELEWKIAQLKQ

[4] = biological target: T4, 4H1845-bA; experiment: two-hybrid library CCNG1;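 also: natural log of median RNA to DNA barcode read ratio; higher means stronger binding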
T4 chain: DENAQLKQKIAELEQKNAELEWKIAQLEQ

[5] = biological target: T5, 4H2576-bA; experiment: two-hybrid library CCNG1;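 also: natural log of median RNA to DNA barcode read ratio; higher means stronger binding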
T5 chain: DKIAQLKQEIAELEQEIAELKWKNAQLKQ

[6] = biological target: T6, 4H2610-bA; experiment: two-hybrid library CCNG1;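 also: natural log of median RNA to DNA barcode read ratio; higher means stronger binding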
T6 chain: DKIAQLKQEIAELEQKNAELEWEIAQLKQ

[7] = biological target: T7, 4H2667-bA; experiment: two-hybrid library CCNG1
T7 chain: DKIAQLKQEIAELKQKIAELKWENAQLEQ

[8] = biological target: T8, 4H2697-bA; experiment: two-hybrid library CCNG1
T8 chain: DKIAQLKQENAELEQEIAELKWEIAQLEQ

[9] = biological target: T9, 4H3189-bA; experiment: two-hybrid library CCNG1
T9 chain: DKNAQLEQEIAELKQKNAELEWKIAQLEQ

[10] = biological target: T10, 4H331-bA; experiment: two-hybrid library CCNG1
T10 chain: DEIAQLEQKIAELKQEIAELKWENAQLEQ

[11] = biological target: T11, 4H346-bH; experiment: two-hybrid library CCNG1
T11 chain: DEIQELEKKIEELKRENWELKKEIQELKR

[12] = biological target: T12, 4H3606-bA; experiment: two-hybrid library CCNG1
T12 chain: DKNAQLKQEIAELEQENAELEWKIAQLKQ

[13] = biological target: T13, 4H370-bA; experiment: two-hybrid library CCNG1
T13 chain: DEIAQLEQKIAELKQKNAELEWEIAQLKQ

[14] = biological target: T14, 4H3782-bA; experiment: two-hybrid library CCNG1
T14 chain: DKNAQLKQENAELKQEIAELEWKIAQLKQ

[15] = biological target: T15, 4H3843-bA; experiment: two-hybrid library CCNG1
T15 chain: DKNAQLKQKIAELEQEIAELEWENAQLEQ

[16] = biological target: T16, 4H4001-bA; experiment: two-hybrid library CCNG1
T16 chain: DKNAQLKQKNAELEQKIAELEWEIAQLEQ

[17] = biological target: T17, 4H462-bA; experiment: two-hybrid library CCNG1
T17 chain: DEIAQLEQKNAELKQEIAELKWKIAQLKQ

[18] = biological target: T18, 4H568-bA; experiment: two-hybrid library CCNG1
T18 chain: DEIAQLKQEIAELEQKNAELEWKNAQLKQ

[19] = biological target: T19, 4H607-bA; experiment: two-hybrid library CCNG1
T19 chain: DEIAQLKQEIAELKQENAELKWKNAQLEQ

[20] = biological target: T20, 4H687-bA; experiment: two-hybrid library CCNG1
T20 chain: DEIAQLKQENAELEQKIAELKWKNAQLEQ

[21] = biological target: T21, 4H72-bA; experiment: two-hybrid library CCNG1
T21 chain: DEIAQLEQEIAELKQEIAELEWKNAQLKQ

[22] = biological target: T22, 4H797-bA; experiment: two-hybrid library CCNG1
T22 chain: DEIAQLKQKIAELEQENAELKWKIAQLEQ

[23] = biological target: T23, 4H883-bA; experiment: two-hybrid library CCNG1
T23 chain: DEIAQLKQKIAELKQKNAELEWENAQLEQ

[24] = biological target: T24, 4H918-bA; experiment: two-hybrid library CCNG1
T24 chain: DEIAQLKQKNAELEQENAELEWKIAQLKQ

[25] = biological target: T25, 4H953-bA; experiment: two-hybrid library CCNG1
T25 chain: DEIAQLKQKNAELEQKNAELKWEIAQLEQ

[26] = biological target: T26, 4H967-bA; experiment: two-hybrid library CCNG1
T26 chain: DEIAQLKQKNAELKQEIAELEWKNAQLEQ

[27] = biological target: T27, P4SH; experiment: two-hybrid library CCNG1
T27 chain: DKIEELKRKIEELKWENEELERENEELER

[28] = biological target: T28, P5SH; experiment: two-hybrid library CCNG1
T28 chain: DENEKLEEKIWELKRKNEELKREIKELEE

[29] = biological target: T29, P6SH; experiment: two-hybrid library CCNG1
T29 chain: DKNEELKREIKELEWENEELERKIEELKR

[30] = biological target: T30, P7SH; experiment: two-hybrid library CCNG1
T30 chain: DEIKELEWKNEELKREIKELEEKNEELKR

[31] = biological target: T31, P8SH; experiment: two-hybrid library CCNG1
T31 chain: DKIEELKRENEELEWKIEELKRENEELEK

[32] = biological target: T32, O10; experiment: two-hybrid library CC0; details: mean of both orientations
T32 chain: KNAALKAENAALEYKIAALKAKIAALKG

[33] = biological target: T33, O11; experiment: two-hybrid library CC0; details: mean of both orientations
T33 chain: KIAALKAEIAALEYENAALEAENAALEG

[34] = biological target: T34, O12; experiment: two-hybrid library CC0; details: mean of both orientations
T34 chain: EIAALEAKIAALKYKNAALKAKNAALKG

[35] = biological target: T35, O13; experiment: two-hybrid library CC0; details: mean of both orientations
T35 chain: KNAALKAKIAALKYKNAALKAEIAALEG

[36] = biological target: T36, O14; experiment: two-hybrid library CC0; details: mean of both orientations
T36 chain: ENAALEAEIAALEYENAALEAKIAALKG

[37] = biological target: T37, O15; experiment: two-hybrid library CC0; details: mean of both orientations
T37 chain: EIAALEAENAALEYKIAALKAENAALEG

[38] = biological target: T38, O16; experiment: two-hybrid library CC0; details: mean of both orientations
T38 chain: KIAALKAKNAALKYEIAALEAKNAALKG

[39] = biological target: T39, O2; experiment: two-hybrid library CC0; details: mean of both orientations
T39 chain: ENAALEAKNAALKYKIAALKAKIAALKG

[40] = biological target: T40, O3; experiment: two-hybrid library CC0; details: mean of both orientations
T40 chain: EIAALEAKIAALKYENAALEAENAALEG

[41] = biological target: T41, O4; experiment: two-hybrid library CC0; details: mean of both orientations
T41 chain: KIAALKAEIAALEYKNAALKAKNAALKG

[42] = biological target: T42, O5; experiment: two-hybrid library CC0; details: mean of both orientations
T42 chain: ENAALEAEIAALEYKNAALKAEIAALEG

[43] = biological target: T43, O6; experiment: two-hybrid library CC0; details: mean of both orientations
T43 chain: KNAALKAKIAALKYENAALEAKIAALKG

[44] = biological target: T44, O7; experiment: two-hybrid library CC0; details: mean of both orientations
T44 chain: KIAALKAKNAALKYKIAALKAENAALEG

[45] = biological target: T45, O8; experiment: two-hybrid library CC0; details: mean of both orientations
T45 chain: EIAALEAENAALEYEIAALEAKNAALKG

[46] = biological target: T46, O9; experiment: two-hybrid library CC0; details: mean of both orientations
T46 chain: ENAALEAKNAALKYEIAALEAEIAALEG

- interaction score [1]: 1.62
- interaction score [2]: -0.903
- interaction score [3]: 0.372
- interaction score [4]: -0.257
- interaction score [5]: 1.95
- interaction score [6]: -0.633
- interaction score [7]: 0.432
- interaction score [8]: 0.429
- interaction score [9]: -0.907
- interaction score [10]: 1.02
- interaction score [11]: 0.114
- interaction score [12]: 0.221
- interaction score [13]: -0.958
- interaction score [14]: 0.142
- interaction score [15]: 1.8
- interaction score [16]: 1.48
- interaction score [17]: -0.405
- interaction score [18]: -0.0125
- interaction score [19]: -0.918
- interaction score [20]: -0.983
- interaction score [21]: 1.25
- interaction score [22]: -1.68
- interaction score [23]: -0.916
- interaction score [24]: -0.412
- interaction score [25]: -0.977
- interaction score [26]: -0.292
Binder: DENAQLEQKIAELEQKIAELKWKNAQLKQ [4H1328-bA]

- interaction score [27]: -0.1
- interaction score [28]: -0.643
- interaction score [29]: -0.892
- interaction score [30]: -1.17
- interaction score [31]: -0.776
Binder: DKIEELKRKIEELKWENEELERENEELER [P4SH]

Binder: KNAALKAENAALEYKIAALKAKIAALKG [O10]
- interaction score [32]: -2.67
- interaction score [33]: -2.65
- interaction score [34]: -2.82
- interaction score [35]: -2.76
- interaction score [36]: -2.57
- interaction score [37]: -2.76
- interaction score [38]: -2.56
- interaction score [39]: -1.28
- interaction score [40]: -2.6
- interaction score [41]: -2.63
- interaction score [42]: -1.82
- interaction score [43]: -2.76
- interaction score [44]: -2.72
- interaction score [45]: -2.5
- interaction score [46]: 1.47
